Test results reported in publication PMC2865030 (Biochemical Journal, 2008).

B1: Tah1 (TPR-containing protein associated with Hsp90) (natural protein)
chain: MSQFEKQKEQGNSLFKQGLYREAVHCYDQLITAQPQNPVGYSNKAMALIKLGEYTQAIQMCQQGLRYTSTAEHVAIRSKLQYRLELAQGAVGSVQIPVVEVDELPEGYDRS

How the values were obtained:
Assay in all cases: ITC
[1] = molecular target: B1
[2] = molecular target: human Hsp90β (His-tagged) (human, UniProt P08238 1-724)
[3] = molecular target: yeast Ssa1 (Hsp70, His-tagged) (yeast, UniProt P10591 1-642)
Chain of yeast Ssa1 (Hsp70, His-tagged) (P10591 whole entry): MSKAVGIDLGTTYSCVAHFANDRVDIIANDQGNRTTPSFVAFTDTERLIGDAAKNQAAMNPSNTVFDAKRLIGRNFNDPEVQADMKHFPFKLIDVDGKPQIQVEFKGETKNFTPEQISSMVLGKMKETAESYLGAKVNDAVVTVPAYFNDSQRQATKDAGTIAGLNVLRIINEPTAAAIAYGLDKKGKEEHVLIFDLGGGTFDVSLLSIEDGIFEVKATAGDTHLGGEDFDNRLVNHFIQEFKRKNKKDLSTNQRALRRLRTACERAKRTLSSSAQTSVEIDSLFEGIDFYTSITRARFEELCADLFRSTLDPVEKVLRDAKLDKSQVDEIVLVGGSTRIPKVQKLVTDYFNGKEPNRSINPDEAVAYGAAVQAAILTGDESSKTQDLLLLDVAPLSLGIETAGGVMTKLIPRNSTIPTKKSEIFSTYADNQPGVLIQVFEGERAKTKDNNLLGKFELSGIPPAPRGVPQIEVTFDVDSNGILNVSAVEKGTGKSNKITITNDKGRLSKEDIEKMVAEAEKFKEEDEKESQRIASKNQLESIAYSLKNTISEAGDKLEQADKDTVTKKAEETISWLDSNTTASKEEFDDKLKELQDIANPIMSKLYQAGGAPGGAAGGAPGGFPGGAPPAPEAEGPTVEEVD

[4] = molecular target: human Hsp90α (human, UniProt P07900 1-732)

Chain of human Hsp90β (His-tagged) (P08238 whole entry): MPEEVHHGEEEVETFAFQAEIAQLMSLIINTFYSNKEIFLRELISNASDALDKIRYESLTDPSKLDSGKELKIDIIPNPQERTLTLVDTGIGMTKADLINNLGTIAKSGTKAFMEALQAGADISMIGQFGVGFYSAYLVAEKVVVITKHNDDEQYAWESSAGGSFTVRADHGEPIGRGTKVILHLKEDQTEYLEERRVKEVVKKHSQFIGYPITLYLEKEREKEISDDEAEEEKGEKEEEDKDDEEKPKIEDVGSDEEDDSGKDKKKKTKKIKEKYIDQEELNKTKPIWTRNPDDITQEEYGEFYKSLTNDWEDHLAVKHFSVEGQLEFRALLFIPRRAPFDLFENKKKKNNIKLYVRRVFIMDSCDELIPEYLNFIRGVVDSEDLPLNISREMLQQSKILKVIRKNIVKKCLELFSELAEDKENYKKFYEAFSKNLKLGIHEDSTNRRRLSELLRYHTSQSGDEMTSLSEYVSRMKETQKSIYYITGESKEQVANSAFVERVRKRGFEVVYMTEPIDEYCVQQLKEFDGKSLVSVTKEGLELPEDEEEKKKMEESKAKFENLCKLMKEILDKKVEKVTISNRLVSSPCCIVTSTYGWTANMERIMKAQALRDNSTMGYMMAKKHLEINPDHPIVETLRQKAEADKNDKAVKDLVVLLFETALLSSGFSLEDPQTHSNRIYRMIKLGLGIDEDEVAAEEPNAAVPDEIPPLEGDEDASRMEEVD

Binder | Kd [1] | stoichiometry N [1] | also measured
EDASRMEEVD [EDASRMEEVD decapeptide (C-terminal end of human Hsp90β)] | 1000 ± 190 nM | 0.81 | 
AEGPTVEEVD [AEGPTVEEVD decapeptide (C-terminal end of Ssa1, wild-type sequence)] | 28900 ± 3100 nM | 1.2 | 
B1 |  |  | Kd [2]: 340 ± 70 nM; stoichiometry N [2]: 0.84; Kd [3]: 16000 ± 2500 nM; Kd [4]: 330 ± 30 nM; stoichiometry N [4]: 1.1
MEEVD [MEEVD pentapeptide (C-terminal end of yeast Hsp90)] |  | 1.1 | 
VEEVD [VEEVD pentapeptide (C-terminal end of Ssa1)] | 48800 ± 5500 nM |  | 
TEMEEVD [TEMEEVD heptapeptide (C-terminal end of yeast Hsp90)] | 950 ± 40 nM | 1.2 | 
PTVEEVD [PTVEEVD heptapeptide (C-terminal end of Ssa1)] | 10600 ± 1400 nM | 1 | 
DDTSRMEEVD [DDTSRMEEVD decapeptide (C-terminal end of human Hsp90α)] | 900 ± 60 nM | 1.1 | 
